Test results from patent US20140328853A1.
Like-named read-outs stand apart in the source and are kept apart here.

Assays:
[1] = molecular target: ADM (human or mouse not told for the control row of Table 3); experiment: cell-based or functional assay
[2] = molecular target: human recombinant adrenomedullin receptor (CRLR+RAMP3) (human)
[3] = molecular target: human recombinant adrenomedullin receptor (CRLR+RAMP3) (human); remark: listed apart in the source

Substance	Maximal inhibition of ADM bioactivity (ADM-Bioassay) (%) [1] [%]	IC50 (read off the curve) [2] [nM]	IC50 (read off the curve) [3] [nM]
Non specific mouse IgG (antibody)	0		
hADM 22-52 (on the sheet: antagonist) (peptide)		200	3000
